Data as given in IntAct's records for PubMed 19361433.

B1: Probable ATP-dependent transporter SufC (Escherichia coli (strain K12)), P77499 (parent)
chain: MLSIKDLHVSVEDKAILRGLSLDVHPGEVHAIMGPNGSGKSTLSATLAGREDYEVTGGTVEFKGKDLLALSPEDRAGEGIFMAFQYPVEIPGVSNQFFLQTALNAVRSYRGQETLDRFDFQDLMEEKIALLKMPEDLLTRSVNVGFSGGEKKRNDILQMAVLEPELCILDESDSGLDIDALKVVADGVNSLRDGKRSFIIVTHYQRILDYIKPDYVHVLYQGRIVKSGDFTLVKQLEEQGYGWLTEQQ
partner: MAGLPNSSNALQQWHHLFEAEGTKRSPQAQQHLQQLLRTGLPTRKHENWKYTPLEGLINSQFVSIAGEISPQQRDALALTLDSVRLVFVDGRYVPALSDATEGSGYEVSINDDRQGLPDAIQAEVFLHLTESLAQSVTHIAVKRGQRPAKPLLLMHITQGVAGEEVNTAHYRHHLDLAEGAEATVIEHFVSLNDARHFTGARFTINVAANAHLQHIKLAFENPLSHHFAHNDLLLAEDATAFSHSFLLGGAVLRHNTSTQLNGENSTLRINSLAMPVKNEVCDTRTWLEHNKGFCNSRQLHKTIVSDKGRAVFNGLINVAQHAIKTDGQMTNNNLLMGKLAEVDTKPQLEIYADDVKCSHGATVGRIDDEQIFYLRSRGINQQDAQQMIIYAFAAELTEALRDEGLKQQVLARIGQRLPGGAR

Variants of: B1
Details: with sufd_ecoli sufD

Variant	effect of a mutation on the interaction
Y86C	increasing interaction
